From patent WO2018224439A1 (dated 2018)

B1: 19-01-H04-sc02 (scFv, V domains shown)
VH: EVQLVESGGGLVQPGGSLRLSCAASGFSLSSNAMGWVRQAPGKGLEYIGIISVGGFTYYASWAKGRFTISRDNSKNTVYLQMNSLRAEDTATYFCARDRHGGDSSGAFYLWGQGTLVTVSS
VL: DIQMTQSPSSLSASVGDRVTITCQSSESVYSNNQLSWYQQKPGQPPKLLIYDASDLASGVPSRFSGSGSGTDFTLTISSLQPEDFATYYCAGGFSSSSDTAFGGGTKLTVLG
notes: Humanized scFv (STR graft); also called 19-01-H04-sc02 STR; 19-01-H04-SC02 STR
B2: 23-13-A01-sc02 (scFv, V domains shown)
VH: EVQLVESGGGLVQPGGSLRLSCAASGFSFSSSYWICWVRQAPGKGLEWVGCVFTGDGTTYYASWAKGRFTISRDNSKNTVYLQMNSLRAEDTATYFCARPVSVYYYGMDLWGQGTLVTVSS
VL: DVVMTQSPSSLSASVGDRVTITCQASQIISSRSAWYQQKPGQPPKLLIYQASKLASGVPSRFSGSGSGTDFTLTISSLQPEDFATYYCQCTYIDSNFGAFGGGTKLTVLG
notes: Humanized scFv (STR graft); also called 23-13-A01-sc02 STR; 23-13-A01-SC02 STR

Key:
human serum albumin [1] = biological target: T1, human serum albumin (human, UniProt P02768 25-609); assay: SPR; sc02 against sc01; this end fits human SA pH 5.5 in Table 3
T1 construct: Coupled by amine chemistry to the SPR chip; also called HSA; human SA

cynomolgus serum albumin = biological target: T2, cynomolgus serum albumin (cynomolgus, UniProt A2V9Z4 25-608); assay: SPR; sc02 against sc01; this end fits cynomolgus SA pH 5.5 in Table 3
T2 construct: also called cynomolgus SA

human serum albumin [2] = biological target: T1, human serum albumin; assay: SPR; sc02 against sc01

| Binder | fold improvement of affinity (STR graft over CDR graft) (human serum albumin [1]) | fold improvement of affinity (STR graft over CDR graft) (cynomolgus serum albumin) | fold improvement of affinity (STR graft over CDR graft) (human serum albumin [2]) |
| --- | --- | --- | --- |
| B1 | 20 to 300 fold | 20 to 300 fold |  |
| B2 |  |  | ~3 fold |
